Laboratory results from patent US20250264471A1 (INDI MOLECULAR, published 2025).
Numbered stars: 1 amine (or outer) side, 2 acyl side, 3 side chain; on linkers, the order of the positions; unused ones are H or OH. Bridge positions count the residues as written; N and C are the ends. Square brackets hold non-standard residues; d marks the D form. Primed or numbered codes have the meaning given here. Ends that are not written are not given here. I, II: the chains in the order shown. * marks the point of attachment. Az8″ = 2-amino-10-azidodecanoic acid (azido amino acid), [N-]=[N+]=NCCCCCCCC[C@H](N[*:1])C(=O)[*:2]; Butanoyl(4-ethynyl) = C#CCCCC(=O)*; Biotin′ = not defined here; Pra = C#CC[C@H](N)C(=O)O; C8N3 = not defined here; 5HA = not defined here; Az8 = not defined here

Key:
Akt1-S473E [1] = molecular target: T1, Akt1-S473E (H. sapiens, UniProt P31749 118-480 (human entry)); assay: SPR (Biacore T100): biotinylated triligand on streptavidin chip, Akt1-S473E 9000 nM to 1 nM as analyte, 10 °C, from kinetic constants
T1 construct: Partially active Akt1 kinase domain expressed in Hi5 insect cells from pVLAKT.2; also called Akt-S473E; AktS473E
T1 chain: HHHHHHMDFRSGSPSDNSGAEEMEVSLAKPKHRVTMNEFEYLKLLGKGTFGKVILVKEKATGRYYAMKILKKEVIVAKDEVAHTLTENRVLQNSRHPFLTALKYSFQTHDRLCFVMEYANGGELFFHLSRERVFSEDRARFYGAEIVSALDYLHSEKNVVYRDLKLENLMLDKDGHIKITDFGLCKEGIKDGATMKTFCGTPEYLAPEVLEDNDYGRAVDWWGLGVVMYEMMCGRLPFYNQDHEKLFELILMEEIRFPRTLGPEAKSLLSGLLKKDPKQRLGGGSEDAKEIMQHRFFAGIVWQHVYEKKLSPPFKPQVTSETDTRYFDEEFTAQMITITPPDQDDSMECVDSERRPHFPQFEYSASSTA
Experimental: For this experiment, the biotinylated triligand was immobilized on a streptavidin-derivatized biacore chip and probed with Akt-S473E at concentrations ranging from 9 μM to 1 nM.
Triligand binding affinity was further analyzed by SPR using a Biacore T100. A Streptavidin Chip (Series S, G.E. Healthcare) was conditioned as recommended by the manufacturer. Biotinylated ligand was diluted into HBSP+ Buffer (G.E. Healthcare) to a final concentration of 100 nM and 137 RU was immobilized on the chip. Akt1-S473E was prepared as described previously and subjected to buffer exchange into HBSP+using Zeba Desalting Columns (Pierce). Serial dilutions of the enzyme were made in HBSP+ buffer (9000 nM to 1 nM) and flowed over the chip at 50 μL/minute. Binding and dissociation were carried out at 10° C. with a contact time of 360 seconds, a dissociation time of 400 seconds, and a stabilization time of 200 seconds. The response was corrected using an unmodified reference flow cell. Kinetic constants were obtained from the sensograms and used to calculate the dissociation constant.

Akt1-S473E-T308P = molecular target: T2, Akt1-S473E-T308P (H. sapiens, UniProt P31749 118-480 (human entry), phosphorylated at residue T308 (phosphothreonine)); assay: kinase kinetics, Dixon plot of 1/v vs. [Triligand] with varying [ATP]; noncompetitive
T2 construct: Fully active kinase; T308P means phospho-T308, not a proline substitution; Same construct as Akt1-S473E; also called Akt-S473E-T308P; Akt-S473E/T308P
T2 chain: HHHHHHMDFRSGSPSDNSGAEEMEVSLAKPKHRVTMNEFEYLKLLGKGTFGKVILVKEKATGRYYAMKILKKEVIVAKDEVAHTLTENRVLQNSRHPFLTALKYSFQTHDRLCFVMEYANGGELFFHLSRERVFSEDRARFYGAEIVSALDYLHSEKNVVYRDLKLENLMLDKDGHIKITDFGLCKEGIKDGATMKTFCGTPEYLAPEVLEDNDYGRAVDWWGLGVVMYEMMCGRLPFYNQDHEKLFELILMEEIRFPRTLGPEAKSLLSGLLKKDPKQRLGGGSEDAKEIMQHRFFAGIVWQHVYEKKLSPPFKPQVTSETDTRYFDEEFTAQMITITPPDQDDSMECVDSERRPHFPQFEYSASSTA
Experimental: To determine the inhibition mode of the triligand with respect to the ATP, kinase reactions were set up with increasing concentrations of ATP. The reactions were set up in a similar manner to that described above. The concentration of Biotin-Crosstide was held constant at 25 μM and the concentration of enzyme was held at […]. The concentration of ATP ranged from 125 μM to 4 μM (125 μM, 63 μM, 32 μM, 16 μM, 8 μM, 4 μM) while the concentration of triligand varied from 0 to 10 μM (0, 1 μM, 5 μM, 10 μM). [γ-³²P]-ATP (7000 Ci/mmol, 10 μCi/μL) was added to the cold ATP stock to maintain an [ATP]ₜₒₜₐₗ/[γ-³²P]-ATP ratio of 1667. The reactions were incubated, quenched, and analyzed as described above.
KM and Vₘₐₓ values for Akt1-S473ET308P were obtained by nonlinear regression from the results of the inhibition experiments (GraphPad). The literature values for the Michaelis constants for ATP and substrate peptide were taken from Klein 2005. The triligand Kᵢ (noncompetitive inhibition) was obtained from the negative X-intercept of the Dixon plot of 1/v vs. [Triligand] with varying [ATP]. The Kᵢ is the mean value of the observed X-intercepts and the error range is the standard deviation. The triligand K_{i′}, (uncompetitive inhibition) was obtained from the intercept of the Dixon plot of 1/v vs. [Triligand] with varying [Peptide]. […]

Akt1-S473E [2] = molecular target: T1, Akt1-S473E; assay: ELISA
Akt1-S473E [3] = molecular target: T1, Akt1-S473E; assay: ELISA: Akt-S473E on Ni-NTA plate, biotinylated peptide titrated, SA-HRP
Experimental: 3 μg of Akt-S473E was added to each well in a HisSorb Ni-NTA plate (Qiagen) in 50 μL of ELISA blocking buffer (25 mM Tris-CI (pH=7.5), 150 mM NaCl, 10 mM MgCl₂, 0.1% (v/v) Tween-20, and 4 mg/mL BSA). 50 μL of imidazole blocking buffer (25 mM Tris-CI (pH=7.5), 150 mM NaCl, 10 mM MgCl₂, 0.1% (v/v) Tween-20, 100 mM imidazole, and 4 mg/mL BSA) was added to the control wells. After 18 hours at 4° C., the wells were washed with ELISA blocking buffer and 50 μL of each ligand dilution was added in ELISA blocking buffer. The ligands were bound at 4° C. for 120 minutes followed by three washed in ELISA blocking buffer. 50 μL of horseradish peroxidase-conjugated streptavidin (SA-HRP, Thermo) was added (1:5000 dilution in ELISA blocking buffer) and incubated for 70 minutes at 4° C. The wells were washed three times in TBST (Tris-buffered saline+0.2% Tween-20) and once in TBS (Tris-buffered saline). 50 μL of peroxidase substrate (KPL) was added to generate the final signal which was quenched in 1 M H₂SO₄ and quantitated on a 96-well plate reader at λ=450 nm. The Net A450 was calculated by subtracting the A450 of each blank well (No Akt-S473E) from the experimental well. The data were fit by non-linear regression in GraphPad Prism.

B1: Akt triligand (biotinylated) (designed binder)
peptide 1: {5HA-C8N3}-VFYRLGY-{Biotin′}
peptide 2: Ac-[Pra]FWFLRG-NH2
peptide 3: {Ac-C8N3}-RHERI-NH2
modifications: triazole II:N-II:1; reading uncertain; also: triazole to a chain's N-terminus
notes: Assembled from 5HA-Biligand-Bio and Ac-C8N3-RHERI-CONH2; also called branched triligand
Binder B1 has a Kd (Akt1-S473E [1]) of 0.2 µM and a Ki (Akt1-S473E-T308P) of 4 µM.

B2: biotinylated anchor ligand Az8-VFYRLGY-Biotin (peptide)
peptide: [Az8″]VFYRLGY-biotin
notes: also called anchor peptide; biotinylated anchor peptide
B2 gave a Kd (Akt1-S473E [2]) of 25 µM.

B3: 5HA-Biligand-Bio (Akt biligand) (designed binder)
peptide 1: {Butanoyl(4-ethynyl)-Az8}-VFYRLGY-biotin
peptide 2: Ac-[Pra]FWFLRG-NH2
modifications: triazole II:N-II:1; reading uncertain; also: mixture of diastereomers
notes: Branched peptide, mixture of diastereomers; also called biotinylated biligand
With B3 the “fold improvement in affinity relative to the anchor peptide” value (Akt1-S473E [3]) was > 100 fold.
